The data set is described as follows: protein stability index of a GFP-peptide fusion (GPS, HEK-293T) (PSI 1-6); higher = more stable.
Setting [1] is: treatment: DMSO, c terminus: native.
Setting [2] is: treatment: MLN4924 1 uM, 8 h, c terminus: native.
The mark [3] stands for this setting: treatment: DMSO, c terminus: a fixed tail appended.
Where [4] appears, read: treatment: MLN4924 1 uM, 8 h, c terminus: a fixed tail appended.

± gives the standard deviation.
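Also: 24-mer peptide tiles fused after GFP, lentivirally expressed, FACS-sorted into six equal bins by GFP/DsRed ratio, decoded by Illumina sequencing, PSI is the read-weighted mean bin number.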

SLSVFTEPNRHFYREMQSFSEDI [FBXO33]: the protein stability index reads like this: under setting [1], 3.26 ± 0.32; under setting [2], 3.33 ± 0.27. For WRWQLYAAQSTKSPWNFLGDELYE [CLPTM1], the protein stability index is, setting by setting: under setting [3], 2.79 ± 0.38; under setting [4], 2.39 ± 0.3. Consider DLEAQMESLKEELLSLKQNHEQEV [KRT33B], for which the protein stability index is, setting by setting: under setting [3], 4.95 ± 0.32; under setting [4], 4.96 ± 0.22. On the same counts, the results for VNPAYPESRYTSDYFISYGIEHAQ [ETS1] are 2.8 ± 0.51 and 2.8 ± 0.4. On the same counts, the results for DPLSPMTASSLLSFAELFSFMLQD [FEM1C] are 2.71 ± 0.49 and 2.42 ± 0.51. In the case of VAEPLAGPACVTVILPSCVPYNK [KLHL14], the protein stability index stood at 2.32 ± 0.37 under setting [1] and 2.36 ± 0.32 under setting [2]. RVMPTQEVQELPIPSKLLEFLSYR [WSB1] returned a protein stability index under setting [3] of 2.94 ± 0.26 and a protein stability index under setting [4] of 2.95 ± 0.24. On the same counts, the results for HLKKVASRYQNNIKNDKYGPWLEW [PRIM1] are 2.23 ± 0.38 and 2.3 ± 0.25.

For GDTKRATPIEVLCENFPEMATYLR [CSNK1G3], the protein stability index was found to be 3.04 ± 0.33 under setting [3] and 2.97 ± 0.38 under setting [4].

As for GGEGVEVELLHNTSYTRQACLVSC [SCNN1D], the protein stability index reads like this: under setting [3], 2.9 ± 0.2; under setting [4], 2.55 ± 0.31. In the same order, the values of RGFAFVTFESPADAKDAARDMNGK [RBMX] are 4.12 ± 0.16 and 4.19 ± 0.26. On the same counts, the results for GHEEWVGSAYLFVESSLDKVVLSD [TRADD] are 2.41 ± 0.45 and 2.45 ± 0.55. In the same order, the values of HMLLNTTLNIKETDSKELSMAKEV [ZBED1] are 4.26 ± 0.17 and 4.35 ± 0.2. In the case of RQAVAWLVAMHKAAKLLYESRDQ [ZFYVE21], the protein stability index worked out at 2.95 ± 1.1 under setting [1] and 2.28 ± 0.3 under setting [2]. CHLFSTYVASHKIEKEEQEKKRKE [ACBD3]: the protein stability index is, setting by setting: under setting [3], 4.41 ± 0.41; under setting [4], 4.43 ± 0.21. In the same order, the values of RSNTLRERSQVRGSAPPRATPGGG [PCDHGC5] are 4.68 ± 0.17 and 4.47 ± 0.28. In the same order, the values of HRLKLRLAIQEMVSLTSPSAPPTS [PPFIA4] are 2.5 ± 0.43 and 2.46 ± 0.24. Regarding QYQTVRYDILPLSPVSRNRLAQVK [CTDNEP1], the protein stability index reads like this: under setting [3], 3.02 ± 0.19; under setting [4], 3.04 ± 0.29.

With RHCPELAEMSRVSIRILDELVLPF [HNF4A], the protein stability index came to 2.12 ± 0.13 under setting [3] and 2.31 ± 0.38 under setting [4]. In the same order, the values of ISGREVFEFRPELVNDDDEEADDT [ZC3H15] are 5.51 ± 0.26 and 5.47 ± 0.16. With PEAAAAQLRATAGSLILPPGPGGT [FCHO1], the protein stability index runs as follows: under setting [3], 4.26 ± 0.41; under setting [4], 4.26 ± 0.53. On the same counts, the results for ALKYWKKAMNMRYSDRTNIISKPV [FEM1C] are 2.5 ± 0.52 and 2.28 ± 0.31.

Turning to SAAVPAGQTYVDAGYEVDKIAQNL [CHIT1], the protein stability index under setting [3] came to 4.39 ± 0.3 and the protein stability index under setting [4] is 4.61 ± 0.46.

Consider APRTSSCAERLQSEEQVSKNLFGP [FCHO1], for which the protein stability index is, setting by setting: under setting [3], 4.21 ± 0.17; under setting [4], 4.17 ± 0.31. Consider LGESKEHMESRMVTETEETQEKKA [SDE2], for which the protein stability index was determined as 5.51 ± 0.3 under setting [3] and 5.75 ± 0.12 under setting [4]. Consider QQKWTKPARAGSEVEWTEDLALDL [C2CD2L], for which the protein stability index by setting is: under setting [3], 4.37 ± 0.27; under setting [4], 4.48 ± 0.28. On to EDLEATSEHFKTTSQKVARKFWWK [VAMP8], for which the protein stability index worked out at 4 ± 0.18 under setting [3] and 3.82 ± 0.25 under setting [4]. In the same order, the values of DGLREALANLRGLSEEERSEKAML [CCDC89] are 4.93 ± 0.22 and 4.51 ± 0.44.

Regarding YTKLPSSLQSTGKCLLYCNGVLEP [SLC25A39], the protein stability index came out at 2.64 ± 0.62 under setting [3] and 2.23 ± 0.35 under setting [4]. In the same order, the values of GKDVATQILEGELFDFDLEVKPVL [RSPH3] are 3.79 ± 0.087 and 3.81 ± 0.46. In the same order, the values of ASAAARLGCNRQSWCLKRYDLEYW [TRIM14] are 2.29 ± 0.7 and 1.86 ± 0.27.

With MAAGFPYALRAYLGYQAVPSGSSG [CEBPB], the protein stability index is, setting by setting: under setting [3], 2.1 ± 0.3; under setting [4], 2.04 ± 0.18. The sequence ETLLKVDLENRCQSLTEDLEFRKS [LMNB1] showed a protein stability index under setting [3] of 4.42 ± 0.22 and a protein stability index under setting [4] of 4.43 ± 0.2. Take SGSAGQYGSDQQHHLGSGSGAGGT [MYOZ1]: the protein stability index is 4.98 ± 0.21 under setting [3] and 5.12 ± 0.29 under setting [4]. In the same order, the values of REETPRMPSWASARDRQPSDFKTD [ELOA2] are 4.96 ± 0.18 and 5.03 ± 0.38. Regarding DEEERRRRVFDVPIRRRRCSRLF [FBXO3], the protein stability index reads like this: under setting [1], 3.32 ± 0.61; under setting [2], 3.73 ± 0.82. Turning to CWLNAFAEMLRFGDRMFYRDWWNS [SOAT2], the protein stability index was determined as 2.47 ± 0.4 under setting [3] and 2.91 ± 0.16 under setting [4]. Consider QGEEPWVQVSPEFKDSAGKSPTGL [ZNF75A], for which the protein stability index by setting is: under setting [3], 4.87 ± 0.22; under setting [4], 5.04 ± 0.22. On to QPLNFVRFYLPLLIHQHEKVIYLD [GLT8D2], for which the protein stability index is, setting by setting: under setting [3], 3.02 ± 0.59; under setting [4], 3.03 ± 0.69.

For NAKLASDDFRSKYQTEQSLRLLVE [KRT34], the protein stability index is, setting by setting: under setting [3], 3.16 ± 0.34; under setting [4], 3.04 ± 0.49. IPYFITLGTELAERQGNGQQAMSL [KCNA3]: the protein stability index runs as follows: under setting [3], 3.03 ± 0.59; under setting [4], 3.01 ± 0.37. On the same counts, the results for GAEPSAPGGGGSPGACPALGTKSC [RTN3] are 5.36 ± 0.26 and 5.4 ± 0.26.

In the case of FSLKTFKRKSEVERAVKRMRHLST [MATN2], the protein stability index was determined as 2.54 ± 0.51 under setting [3] and 2.82 ± 0.46 under setting [4]. In the same order, the values of EILTLLQGVHQGAGFQDIPKRCLK [TSN] are 2.08 ± 0.3 and 2.41 ± 0.49. For the sequence QTWNNSTWSNQTQNIQSWSNHSWN [NANOGP8], the protein stability index under setting [3] was 2.36 ± 0.24 and the protein stability index under setting [4] came to 2.46 ± 0.28. In the same order, the values of AEDWFFSKTEELNREVATNSELVQ [KRT17] are 4.87 ± 0.2 and 4.84 ± 0.07.

Regarding NSELVQSGKSEISELRRTMQALEI [KRT17], the protein stability index is, setting by setting: under setting [3], 3.94 ± 0.18; under setting [4], 3.94 ± 0.42. On the same counts, the results for YARTPTLDPDTMHARLRLSADRLT [TRIM14] are 2.91 ± 0.17 and 3.27 ± 0.33. In the same order, the values of RLNKLRLESEGSPETLTNLRKGYL [HACD3] are 3.25 ± 0.23 and 3.35 ± 0.33. On the same counts, the results for IDAVPVDENLFTGEDLDELEEELN [ZC3H15] are 5.53 ± 0.21 and 5.51 ± 0.19. In the case of LSSQCFSNISRPRDNPMCLKCDLQ [M1AP], the protein stability index amounted to 3.2 ± 0.035 under setting [3] and 3.27 ± 0.15 under setting [4].

For CRREAFRRLGNGVSDDLSSEEDGE [PHTF1], the protein stability index by setting is: under setting [3], 4.94 ± 0.19; under setting [4], 4.77 ± 0.13. Sequence AGGDVPHKTHQAPASASSLPGTGA [DYRK1B] had a protein stability index under setting [3] of 4.89 ± 0.099 and a protein stability index under setting [4] of 4.87 ± 0.28. On to IEVFDPDANTWRLYGGMNYRRLGG [KLHL20], for which the protein stability index is, setting by setting: under setting [3], 2.38 ± 0.45; under setting [4], 2.17 ± 0.26. GPFGVNHGVELHSDVIEYAKQKLD [PCMTD2]: the protein stability index under setting [3] amounted to 3.94 ± 0.6 and the protein stability index under setting [4] was determined as 4.28 ± 0.25.

As to SVLSACDNLSDLVMVRWNKSLEWS [IQUB], the protein stability index runs as follows: under setting [3], 2.04 ± 0.24; under setting [4], 2.33 ± 0.12. In the same order, the values of ECAKAFSRSAILIQHRRTHTDSKY [ZNF396] are 2.55 ± 0.21 and 2.67 ± 0.21.

For the sequence SRILKKTVYNEMDKNRCELLSFLL [EDNRA], the protein stability index worked out at 2.14 ± 0.67 under setting [3] and 1.96 ± 0.36 under setting [4]. With LGYPYVNSVSSHASSPYISSVQSY [DLX1], the protein stability index by setting is: under setting [3], 2.29 ± 0.18; under setting [4], 2.35 ± 0.27. On the same counts, the results for LAMNYLDRFLAGVPTPKSHLQLLG [CCND2] are 2.94 ± 0.61 and 2.65 ± 0.76.

Consider YTVKDKATGEVLGQFYLDLYPREG [NLN], for which the protein stability index came to 3.1 ± 0.69 under setting [3] and 2.8 ± 0.77 under setting [4]. Take VFIDFSVYNANINLFCVLRLVVEF [PKD2L1]: the protein stability index turned out to be 3.51 ± 0.61 under setting [3] and 2.7 ± 0.4 under setting [4]. In the same order, the values of AGILSNLTCNNYKNKMMVCQVGGI [CTNNB1] are 2.17 ± 0.3 and 2.11 ± 0.37. Take MAAPPKAPIRVRNLTIRAGALTGK [DMRTC1]: the protein stability index runs as follows: under setting [3], 3.57 ± 0.33; under setting [4], 3.73 ± 0.22. Consider KEKQSRDFQGRILSVDPEEEREEG [RHOBTB1], for which the protein stability index is 5.25 ± 0.24 under setting [3] and 5.46 ± 0.55 under setting [4]. Regarding HGAHKHHPIEEAAEEHREKLLKQM [TRIM43], the protein stability index is, setting by setting: under setting [3], 5.17 ± 0.24; under setting [4], 5.14 ± 0.14. For the sequence VQADQERERQRRLEVEREAEKKRE [LRRC59], the protein stability index is, setting by setting: under setting [3], 5.52 ± 0.093; under setting [4], 5.64 ± 0.17.

In the case of EEYPGITAEDSNDIYILPSDNSGQ [BCL2L13], the protein stability index by setting is: under setting [3], 5.25 ± 0.18; under setting [4], 5.14 ± 0.21.

Turning to SLQERKQALYEYARRRFTERRAQE [AUP1], the protein stability index reads like this: under setting [3], 4.53 ± 0.18; under setting [4], 4.44 ± 0.21.

As for ITTDNLQCRERREHPNLVRDHVET [TEKT4], the protein stability index runs as follows: under setting [3], 4.35 ± 0.085; under setting [4], 4.44 ± 0.17.

As for QEFAARAAKQLEYQQLEDDKLSQK [EPB41L3], the protein stability index under setting [3] worked out at 5.17 ± 0.81.

VKEWFGLGGEQAEEKAFESVIEPV [MIA2]: the protein stability index was determined as 4.23 ± 0.23 under setting [3] and 4.04 ± 0.15 under setting [4].

For the origin of these results see the supplement of paper PMC10567573.
